A short description of this data set: total protein half-life in vivo (active degradation + dilution); higher = more stable protein.
[1] abbreviates: E. coli NCM3722 delta-clpP delta-lon delta-hslV, growth: N-lim chemostat, doubling time 6 h.
The mark [2] stands for this setting: E. coli NCM3722 delta-clpP, growth: N-lim chemostat, doubling time 6 h.
Where [3] appears, read: E. coli NCM3722 delta-hslV, growth: N-lim chemostat, doubling time 6 h.
Where [4] appears, read: E. coli NCM3722 delta-lon, growth: N-lim chemostat, doubling time 6 h.
Setting [5] is: E. coli NCM3722 delta-smpB, growth: N-lim chemostat, doubling time 6 h.
The mark [6] stands for this setting: wild type E. coli NCM3722, growth: C-lim chemostat, doubling time 3 h.
Where [7] appears, read: wild type E. coli NCM3722, growth: C-lim chemostat, doubling time 6 h.
[8] abbreviates: wild type E. coli NCM3722, growth: C-lim chemostat, doubling time 12 h.
Setting [9] is: wild type E. coli NCM3722, growth: N-lim chemostat, doubling time 6 h.
[10] abbreviates: wild type E. coli NCM3722, growth: N-lim chemostat, doubling time 12 h.
[11] abbreviates: wild type E. coli NCM3722, growth: P-lim chemostat, doubling time 6 h.
Where [12] appears, read: wild type E. coli NCM3722, growth: P-lim chemostat, doubling time 12 h.

± gives the standard deviation of the averaged measurements.

For “MSHRDTLFSAPIARLGDWTFDERVAEVFPDMIQRSVPGYSNIISMIGMLAERFVQPGTQVYDLGCSLGAATLSVRRNIHHDNCKIIAIDNSPAMIERCRRHIDAYKAPTPVDVIEGDIRDIAIENASMVVLNFTLQFLEPSERQALLDKIYQGLNPGGALVLSEKFSFEDAKVGELLFNMHHDFKRANGYSELEISQKRSMLENVMLTDSVETHKARLHNAGFEHSELWFQCFNFGSLVALKAEDAA”, the “total protein half-life in vivo” value by setting is: under setting [1], 4.36 ± 0.1 h; under setting [2], 4.266 ± 0.023 h; under setting [3], 3.422 ± 0.01 h; under setting [4], 4.69 ± 0.25 h; under setting [5], 3.28 ± 0.41 h; under setting [6], 2.85 ± 0.079 h. Further, the “total protein half-life in vivo” value was determined as 4.75 ± 0.061 h under setting [7]; 6.64 ± 0.99 h under setting [8]; 3.17 ± 0.74 h under setting [9]; 4.86 ± 0.5 h under setting [10]; 4.66 ± 0.48 h under setting [11]; 9.24 ± 0.053 h under setting [12].
With “MRYPVTLTPAPEGGYMVSFVDIPEALTQGETVAEAMEAAKDALLTAFDFYFEDNELIPLPSPLNSHDHFIEVPLSVASKVLLLNAFLQSEITQQELARRIGKPKQEITRLFNLHHATKIDAVQLAAKALGKELSLVMV”, the “total protein half-life in vivo” value is 1.45 h under setting [11] and 3.2 ± 0.94 h under setting [12].
In the case of “MHVLNILWVVFGIGLMLVLNLKFKINSMVALLVAALSVGMLAGMDLMSLLHTMKAGFGNTLGELAIIVVFGAVIGKLMVDSGAAHQIAHTLLARLGLRYVQLSVIIIGLIFGLAMFYEVAFIMLAPLVIVIAAEAKIPFLKLAIPAVAAATTAHSLFPPQPGPVALVNAYGADMGMVYIYGVLVTIPSVICAGLILPKFLGNLERPTPSFLKADQPVDMNNLPSFGVSILVPLIPAIIMISTTIANIWLVKDTPAWEVVNFIGSSPIAMFIAMVVAFVLFGTARGHDMQWVMNAFESAVKSIAMVILIIGAGGVLKQTIIDTGIGDTIGMLMSHGNISPYIMAWLITVLIRLATGQGVVSAMTAAGIISAAILDPATGQLVGVNPALLVLATAAGSNTLTHINDASFWLFKGYFDLSVKDTLKTWGLLELVNSVVGLIIVLIISMVA [P0AC94]”, the “total protein half-life in vivo” value came out at 2.92 ± 1.2 h under setting [6], 6.04 ± 0.1 h under setting [7] and 13.5 h under setting [8].
Turning to “MSVTIQGNTSTVISNNSAPEGTSEIAKITRQIQVLTEKLGKISSEEGMTTQQKKEMAALVQKQIESLWAQLEQLLRQQAEKKNEDATVQPDKKEEKKDDTNTAGTIDIYV”, the “total protein half-life in vivo” value under setting [6] was determined as 0.426 h.
As to “MFEINPVNNRIQDLTERSDVLRGYLDYDAKKERLEEVNAELEQPDVWNEPERAQALGKERSSLEAVVDTLDQMKQGLEDVSGLLELAVEADDEETFNEAVAELDALEEKLAQLEFRRMFSGEYDSADCYLDIQAGSGGTEAQDWASMLERMYLRWAESRGFKTEIIEESEGEVAGIKSVTIKISGDYAYGWLRTETGVHRLVRKSPFDSGGRRHTSFSSAFVYPEVDDDIDIEINPADLRIDVYRTSGAGGQHVNRTESAVRITHIPTGIVTQCQNDRSQHKNKDQAMKQMKAKLYELEMQKKNAEKQAMEDNKSDIGWGSQIRSYVLDDSRIKDLRTGVETRNTQAVLDGSLDQFIEASLKAGL”, the “total protein half-life in vivo” value is, setting by setting: under setting [1], 5.162 ± 0.05 h; under setting [2], 4.669 ± 0.007 h; under setting [3], 4.335 ± 0.033 h; under setting [4], 5.14 ± 0.28 h; under setting [5], 4.282 ± 0.0079 h; under setting [6], 2.79 ± 0.044 h. Further, the “total protein half-life in vivo” value is 4.99 ± 0.27 h under setting [7]; 8.37 ± 0.37 h under setting [8]; 4.37 ± 0.28 h under setting [9]; 6.87 ± 0.013 h under setting [10]; 4.6 ± 0.33 h under setting [11]; 8.54 ± 0.3 h under setting [12].
Regarding “MVWIDYAIIAVIAFSSLVSLIRGFVREALSLVTWGCAFFVASHYYTYLSVWFTGFEDELVRNGIAIAVLFIATLIVGAIVNFVIGQLVEKTGLSGTDRVLGVCFGALRGVLIVAAILFFLDSFTGVSKSEDWSKSQLIPQFSFIIRCFFDYLQSSSSFLPRA”, the “total protein half-life in vivo” value under setting [10] was determined as 7.81 h.
For the sequence “MKAKAILLASVLLVGCQSTGNVQQHAQSLSAAGQGEAAKFTSQARWMDDGTSIAPDGDLWAFIGDELKMGIPENDRIREQKQKYLRNKSYLHDVTLRAEPYMYWIAGQVKKRNMPMELVLLPIVESAFDPHATSGANAAGIWQIIPSTGRNYGLKQTRNYDARRDVVASTTAALNMMQRLNKMFDGDWLLTVAAYNSGEGRVMKAIKTNKARGKSTDFWSLPLPQETKQYVPKMLALSDILKNSKRYGVRLPTTDESRALARVHLSSPVEMAKVADMAGISVSKLKTFNAGVKGSTLGASGPQYVMVPKKHADQLRESLASGEIAAVQSTLVADNTPLNSRVYTVRSGDTLSSIASRLGVSTKDLQQWNKLRGSKLKPGQSLTIGAGSSAQRLANNSDSITYRVRKGDSLSSIAKRHGVNIKDVMRWNSDTANLQPGDKLTLFVKNNNMPDS [P0AEZ7]”, the “total protein half-life in vivo” value under setting [1] was found to be 3.87 ± 0.74 h.
Regarding “MSKRRVVVTGLGMLSPVGNTVESTWKALLAGQSGISLIDHFDTSAYATKFAGLVKDFNCEDIISRKEQRKMDAFIQYGIVAGVQAMQDSGLEITEENATRIGAAIGSGIGGLGLIEENHTSLMNGGPRKISPFFVPSTIVNMVAGHLTIMYGLRGPSISIATACTSGVHNIGHAARIIAYGDADVMVAGGAEKASTPLGVGGFGAARALSTRNDNPQAASRPWDKERDGFVLGDGAGMLVLEEYEHAKKRGAKIYAELVGFGMSSDAYHMTSPPENGAGAALAMANALRDAGIEASQIGYVNAHGTSTPAGDKAEAQAVKTIFGEAASRVLVSSTKSMTGHLLGAAGAVESIYSILALRDQAVPPTINLDNPDEGCDLDFVPHEARQVSGMEYTLCNSFGFGGTNGSLIFKKI [P0AAI5]”, the “total protein half-life in vivo” value was determined as 6.45 ± 1.9 h under setting [1]; 4.94 ± 0.21 h under setting [2]; 4.87 ± 0.28 h under setting [3]; 5.15 ± 0.41 h under setting [4]; 4.89 ± 0.14 h under setting [5]; 3.121 ± 0.02 h under setting [6]. In addition, the “total protein half-life in vivo” value under setting [7] came to 6.09 ± 0.35 h; the “total protein half-life in vivo” value under setting [8] came to 12.1 ± 0.42 h; the “total protein half-life in vivo” value under setting [9] was 4.89 ± 0.34 h; the “total protein half-life in vivo” value under setting [10] was determined as 8.33 ± 0.17 h; the “total protein half-life in vivo” value under setting [11] is 6.13 ± 0.29 h; the “total protein half-life in vivo” value under setting [12] was found to be 12.6 ± 0.18 h.
Consider “MLNERQLKIVDLLEQQPRTPGELAQQTGVSGRTILRDIDYLNFTLNGKARIFASGSAGYQLEIFERRSFFQLLQKHDNDDRLLALLLLNTFTPRAQLASALNLPETWVAERLPRLKQRYERTCCLASRPGLGHFIDETEEKRVILLANLLRKDPFLIPLAGITRDNLQHLSTACDNQHRWPLMQGDYLSSLILAIYALRNQLTDEWPQYPGDEIKQIVEHSGLFLGDNAVRTLTGLIEKQHQQAQVISADNVQGLLQRVPGIASLNIIDAQLVENITGHLLRCLAAPVWIAEHRQSSMNNLKAAWPAAFDMSLHFITLLREQLDIPLFDSDLIGLYFACALERHQNERQPIILLSDQNAIATINQLAIERDVLNCRVIIARSLSELVAIREEIEPLLIINNSHYLLDDAVNNYITVKNIITAAGIEQIKHFLATAFIRQQPERFFSAPGSFHYSNVRGESWQHITRQICAQLVAQHHITADEAQRIIAREGEGENLIVNRLAIPHCWSEQERRFRGFFITLAQPVEVNNEVINHVLIACAAADARHELKIFSYLASILCQHPAEIIAGLTGYEAFMELLHKG”, for which the “total protein half-life in vivo” value under setting [1] stood at 6.57 h.
For “MKPGCTLFFLLCSALTVTTEAHAQTPDTATTAPYLLAGAPTFDLSISQFREDFNSQNPSLPLNEFRAIDSSPDKANLTRAASKINENLYASTALERGTLKIKSIQMTWLPIQGPEQKAAKAKAQEYMAAVIRTLTPLMTKTQSQKKLQSLLTAGKNKRYYTETEGALRYVVADNGEKGLTFAVEPIKLALSESLEGLNK”, the “total protein half-life in vivo” value is 6.2 ± 0.26 h under setting [1]; 5.91 ± 0.5 h under setting [2]; 5.05 ± 0.18 h under setting [3]; 5.3822 ± 0.0028 h under setting [4]; 5.12 ± 0.43 h under setting [5]; 2.86 ± 0.12 h under setting [6]. The “total protein half-life in vivo” value is 5.26 ± 1.2 h under setting [7]; 8.36 ± 0.16 h under setting [8]; 4.14 ± 0.39 h under setting [9]; 8.35 ± 1.6 h under setting [10]; 3.75 ± 0.27 h under setting [11]; 8.75 ± 1.1 h under setting [12].

For the origin of these results see the supplement of paper PMC11246515.
